Experimental data published in US11866760B2, “Microorganisms for the production of insect pheromones and related compounds” (Provivi, Inc., priority 2017, dated 2024).
Several values for one entry are separate records, joined by “and”; a condition that tells them apart may be missing. Equal entries are not always repeated.

Columns and labels:
Format in all cases: cell-based, Saccharomyces cerevisiae
[1] = tested on: Z11-hexadecenoic acid; assay: in vivo bioconversion of Z11-hexadecenoic acid into Z11-hexadecenol by alcohol-forming reductases in S. cerevisiae
From the text: S. cerevisiae W303 (MATA ura3-1 trp1-1 leu2-3_112 his3-11_15 ade2-1 can1-100) and BY4742 (MATa POX1::kanMX his3Δ1 leu2Δ0 lys2Δ0 ura3Δ0) were used as expression hosts. DNA sequences which encode fatty alcohol reductase variants were redesigned to optimize expression in S. cerevisiae (SEQ ID NOs: 1-3). Generated synthons (Genscript) were cloned into pESC-URA vector using BamHI-XhoI sites to facilitate protein expression utilizing the Gal1 promoter. The resulting plasmid constructs were used to transform W303, and positive transformants were selected on CM agar medium (with 2% glucose, and lacking uracil) (Teknova). To assess functional expression, two positive transformation clones that have been patched on CM agar medium (with 2% glucose, and lacking uracil) were used to seed CM liquid medium using a 24 deep-well plate format. […]
The lipids were extracted according to a modified procedure of Hagström et al. (2012) (Hagström, A. K., Liénard, M. A., Groot, A. T., Hedenström, E. & Löfstedt, C. Semi-Selective Fatty Acyl Reductases from Four Heliothine Moths Influence the Specific Pheromone Composition. PLoS One 7: e37230 (2012)). […] The trimethylsilyl-esters, which were generated by this method were subsequently analyzed by GC-MS analysis. […] A Z11-hexadecenol calibration curve shown in FIG. 9 was used to quantify the Z11-hexadecenol produced from yeasts. […]

[2] = tested on: S. cerevisiae ΔOLE1; assay: ΔOLE1 growth complementation assay without UFA
From the text: S. cerevisiae ΔOLE1 (MATA OLE1::LEU2 ura3-52 his4) was used as an expression host. A synthetic expression cassette termed pOLE1 (FIG. 10, SEQ ID NO: 4) which comprises the OLE1 promoter region (SEQ ID NOs: 5 and 6), nucleotides encoding for 27 N-terminal amino acids of the OLE1 leader sequence (SEQ ID NO: 7), and a VPS13 terminator sequence (SEQ ID NO: 8) was created, and cloned into pESC-URA vector in between SacI and EcoRI sites. To test the functionality of the pOLE1 cassette, Dasher GFP synthon was inserted in between SpeI and NotI sites to create pOLE1-GFP plasmid. Competent ΔOLE1 was transformed with pOLE1-GFP, and plated on CM-Ura glucose agar plate (Teknova) containing UFA (20 mm CM-URA glucose agar plate was coated with 100 μL CM-Ura glucose medium containing 1% tergitol, and 3 μL palmitoleic acid). […] Validation of ΔOLE1 complementation was performed by restoring OLE1 activity. Specifically, native S. cerevisiae OLE1 synthon was inserted into pOLE1 cassette devoid of the leader sequence to create pOLE1-OLE1 plasmid. After transformation of ΔOLE1, and selection on CM-Ura glucose agar containing UFA, single colonies were patched onto YPD and CM-Ura glucose without UFA. After incubation at 30° C. for 5 days, growth was observed (FIG. 11A-FIG. 11E). As expected, Dasher GFP expression could not complement ΔOLE1 growth without UFA (FIG. 11A-FIG. 11E). DNA sequences which encode for desaturase variants were synthesized (to include nucleotide changes which remove restriction sites used for cloning purposes), and cloned into pOLE1 using SpeI-NotI sites (Genscript, SEQ ID NOs: 9-13). Complementation assay of ΔOLE1 with insect desaturases were performed in the same way as with OLE1 desaturase.

[3] = tested on: palmitic acid; assay: in vivo bioconversion of palmitic acid into (Z)-11-hexadecenoic acid in S. cerevisiae ΔOLE1; conditions: ΔOLE1, ~96 h in minimal medium containing palmitic acid
Experimental: To assess functional expression, two positive transformation clones that had been patched on CM-Ura glucose agar medium containing UFA were inoculated in 1.5 mL CM-Ura glucose liquid medium containing palmitic acid (in ethanol) at a final concentration of 300 mg/L, and with 6.7 g/L of YNB. For (z)-11-hexadecenoic isomer confirmation, a 20 mL culture was generated. Bioconversion assay proceeded for 96 h at 28° C. prior to GC-MS analysis.
Total lipid composition as well as the (Z)-11-hexadecenoic acid quantification was based on modified procedures by Moss et al. (1982) (Moss, C. W., Shinoda, T. & Samuels, J. W. Determination of cellular fatty acid compositions of various yeasts by gas-liquid chromatography. J. Clin. Microbiol. 16: 1073-1079 (1982)) and Yousuf et al (2010) (Yousuf, A., Sannino, F., Addorisio, V. & Pirozzi, D. Microbial Conversion of Olive Oil Mill Wastewaters into Lipids Suitable for Biodiesel Production. J. Agric. Food Chem. 58: 8630-8635 (2010)). The pelleted cells (in 1.5 mL plastic tubes), usually about 10 mg to 80 mg, were resuspended in methanol containing 5% (w/w) of sodium hydroxide. […]
The regioselectivity of biologically produced (Z)-11-hexadecenoic acid was determined by comparing the fragmentation patterns of the dimethyl disulfide (DMDS) derivative with the DMDS derivative of an authentic standard. […]

B1: H. armigera reductase: Helicoverpa armigera alcohol-forming fatty acyl-CoA reductase, SEQ ID NO: 41 (protein)
chain: MVVLTSKETKPSVAEFYAGKSVFITGGTGFLGKVFIEKLLYSCPDIENIYMLIREKKGLSVSERIKQFLDDPLFTRLKDKRPADLEKIVLIPGDITAPDLGINSENEKMLIEKVSVIIHSAATVKFNEPLPTAWKINVEGTRMMLALSRRMKRIEVFIHISTAYTNTNREVVDEILYPAPADIDQVHQYVKDGISEEDTEKILNGRPNTYTFTKALTEHLVAENQAYVPTIIVRPSVVAAIKDEPLKGWLGNWFGATGLTVFTAKGLNRVIYGHSSYIVDLIPVDYVANLVIAAGAKSSKSTELKVYNCCSSSCNPVTIGTLMSMFADDAIKQKSYAMPLPGWYIFTKYKWLVLLLTFLFQVIPAYVTDLSRHLIGKSPRYIKLQSLVNQTRSSIDFFTNHSWVMKADRVRELYASLSPADKYLFPCDPTDINWTHYIQDYCWGVRHFLEKKSYE
modifications: Helicoverpa armigera alcohol forming reductase (HaFAR)
[1]; S. cerevisiae
  activity toward Z11-hexadecenoic acid among the reductases tested: most active
[1]; W303A, within 48 h of protein induction, 300 mg/L Z11-hexadecenoic acid
  Z11-hexadecenol production: ≤ 70 μM and ≤ 16 mg/L

B2: S. cerevisiae OLE1: native S. cerevisiae palmitoyl:CoA/stearoyl:CoA (Z)-9-desaturase, positive control (protein, UniProt P21147 1-510, looked up)
Acyl-CoA desaturase 1: MPTSGTTIELIDDQFPKDDSASSGIVDEVDLTEANILATGLNKKAPRIVNGFGSLMGSKEMVSVEFDKKGNEKKSNLDRLLEKDNQEKEEAKTKIHISEQPWTLNNWHQHLNWLNMVLVCGMPMIGWYFALSGKVPLHLNVFLFSVFYYAVGGVSITAGYHRLWSHRSYSAHWPLRLFYAIFGCASVEGSAKWWGHSHRIHHRYTDTLRDPYDARRGLWYSHMGWMLLKPNPKYKARADITDMTDDWTIRFQHRHYILLMLLTAFVIPTLICGYFFNDYMGGLIYAGFIRVFVIQQATFCINSLAHYIGTQPFDDRRTPRDNWITAIVTFGEGYHNFHHEFPTDYRNAIKWYQYDPTKVIIYLTSLVGLAYDLKKFSQNAIEEALIQQEQKKINKKKAKINWGPVLTDLPMWDKQTFLAKSKENKGLVIISGIVHDVSGYISEHPGGETLIKTALGKDATKAFSGGVYRHSNAAQNVLADMRVAVIKESKNSAIRMASKRGEIYETGKFF
[2]; minimal medium (CM-Ura glucose) agar plate
  rescue of ΔOLE1 growth without UFA: rescued ΔOLE1 growth without exogenous UFA
[2]; rich medium (YPD) agar plate
  rescue of ΔOLE1 growth without UFA: highest level of growth
[3]
  (Z)-9-hexadecenoic acid in C16-fatty acid: ~31.4%
  hexadecanoic acid in C16-fatty acid: approximately 68.6%
